Patent US20040101919A1 (TEXAS A AND M UNIVERSITY SYSTEM, published 2004)

T1: human fibrinogen (human, UniProt P02671 20-629; P02675 31-491; P02679 27-437)
T1 sequence 1: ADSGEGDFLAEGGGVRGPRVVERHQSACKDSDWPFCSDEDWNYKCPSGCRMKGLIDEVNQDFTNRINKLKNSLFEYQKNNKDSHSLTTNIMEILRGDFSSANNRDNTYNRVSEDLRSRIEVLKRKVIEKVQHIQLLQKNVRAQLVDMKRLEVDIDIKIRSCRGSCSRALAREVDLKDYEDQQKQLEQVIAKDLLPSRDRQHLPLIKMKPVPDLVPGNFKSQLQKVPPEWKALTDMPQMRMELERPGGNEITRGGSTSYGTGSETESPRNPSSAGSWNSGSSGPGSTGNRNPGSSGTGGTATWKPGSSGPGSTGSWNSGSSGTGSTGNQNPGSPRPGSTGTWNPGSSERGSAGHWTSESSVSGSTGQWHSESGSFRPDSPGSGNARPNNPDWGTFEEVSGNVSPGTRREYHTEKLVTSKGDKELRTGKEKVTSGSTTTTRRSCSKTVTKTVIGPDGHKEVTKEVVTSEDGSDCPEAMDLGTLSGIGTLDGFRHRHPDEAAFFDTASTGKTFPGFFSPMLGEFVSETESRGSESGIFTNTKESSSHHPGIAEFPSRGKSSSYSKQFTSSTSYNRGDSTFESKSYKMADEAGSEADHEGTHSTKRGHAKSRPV
T1 sequence 2: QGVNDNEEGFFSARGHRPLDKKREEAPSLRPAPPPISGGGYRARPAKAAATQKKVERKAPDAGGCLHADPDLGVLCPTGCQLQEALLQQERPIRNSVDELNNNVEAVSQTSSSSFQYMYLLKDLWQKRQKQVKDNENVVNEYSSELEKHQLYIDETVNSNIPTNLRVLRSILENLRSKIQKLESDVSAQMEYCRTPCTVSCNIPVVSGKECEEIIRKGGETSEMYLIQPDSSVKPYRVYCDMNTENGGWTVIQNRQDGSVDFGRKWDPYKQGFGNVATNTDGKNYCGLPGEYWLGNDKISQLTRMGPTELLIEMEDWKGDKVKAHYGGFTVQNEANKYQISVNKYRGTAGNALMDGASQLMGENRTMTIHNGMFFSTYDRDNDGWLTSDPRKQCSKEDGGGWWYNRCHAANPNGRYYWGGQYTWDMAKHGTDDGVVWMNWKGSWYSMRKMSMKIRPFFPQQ
T1 sequence 3: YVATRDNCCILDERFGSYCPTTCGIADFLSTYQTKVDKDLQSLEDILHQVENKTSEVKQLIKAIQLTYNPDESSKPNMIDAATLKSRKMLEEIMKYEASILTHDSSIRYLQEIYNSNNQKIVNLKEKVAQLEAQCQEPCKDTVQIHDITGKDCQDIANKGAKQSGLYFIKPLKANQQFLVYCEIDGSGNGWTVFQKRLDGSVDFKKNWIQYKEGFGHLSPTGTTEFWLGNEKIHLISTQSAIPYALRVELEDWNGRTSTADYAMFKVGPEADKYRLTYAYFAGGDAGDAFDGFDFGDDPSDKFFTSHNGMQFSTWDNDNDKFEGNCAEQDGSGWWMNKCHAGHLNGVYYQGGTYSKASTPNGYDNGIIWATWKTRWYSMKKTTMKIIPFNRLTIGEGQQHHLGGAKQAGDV

B1: EF1093 A domain (recombinant EF1093), N-terminal His6-tag fusion protein (other)
chain: EENGESAQLVIHKKKMTDLPDPLIQNSGKEMSEFDKYQGLADVTFSIYNVTNEFYEQRAAGASVDAAKQAVQSLTPGKPVAQGTTDANGNVTVQLPKKQNGKDAVYTIKEEPKEGVVAATNMVVAFPVYEMIKQTDGSYKYGTEELAVVHIYPKNVVANDGSLHVKKVGTAENEGLNGAEFVISKSEGSPGTVKYIQGVKDGLYTWTTDKEQAKRFITGKSYEIGENDFTEAENGTGELTVKNLEVGSYILEEVKAPNNAELIENQTKTPFTIEANNQTPVEKTVKNDTSKVDKTTPSLDGKDVAIGEKIKYQISVNIPLGIADKEGDANKYVKFNLVDKHDAALTFDNVTSGEYAYALYDGDTVIAPENYQVTEQANGFTVAVNPAYIPTLTPGGTLKFVYFMHLNEKADPTKGFKNEANVDNGHTDDQTPPTVEVVTGGKRFIKVDGDVTATQALAGASFVVRDQNSDTANYLKIDETTKAATWVKTKAEATTFTTTADGLVDITGLKYGTYYLEETVAPDDYVLLTNRIEFVVNEQSYGTTENLVSPEKVPNKHK
notes: not shown: N-terminal His6-tag from vector pQE-30
B2: EF2224 A domain (EF2224A), N-terminal His6-tag fusion protein (other)
chain: QEVTSDAEKTVEKDGLKVIGKIEDTSSQEDIKTVTYEVTNTRDVPIKDLILKQKNTNDSPIKFVLDTLSEERGPTSLEEQAKVETNEKDQTTDIKLLNLQPNSTRKITINGQITTKASNKLLVSVLIEDNEKGTLVIDLPSKDILADKESVSKEKQETSETKVENQANETASSTNEMTATTSNETKPEAGKAIESIQETALTQATESPEQPPLKAQPTGPLVPPTPGRGFNTPIYQSVHKGELFSTGNTNLKIANENTAAAQTFLNTRGASSGYAINNFPLEFADVDNDPNTYNSSRAYIDLNGAKEIAWAGLFWSASRYKGPAYGTNLSDEEISAPVQFTTPNGTVQRVSPQRYHRIDQDATNPGQRFGYNNTGFSNYADVTSILQGDKSATGSYTLADIPMTSSLNGQYQYYNFSGWSLFVVTKDQASKSRAFSIYYGARGNAAGTNNEFTMSNFLTAKQGNLDPIVTWFTVQGDKYWTGDNAQIKNSAGTWVNISNTLNPVNNAMNATVTDNDEHMVDKYPGKFAPDHPNFLDIDIDRMAIPEGVLNAGQNQINFRTTSSGDDYSTNAIGFAVNAETPEFEIKKEIVEPKETYKVGETITYRVSLKNTKADSEAINSVSKDALDGRLNYLPGSLKIISGPNSGEKTDASGDDQAEYDETNKQIIVRVGNGATATQGGSYKADTAETIYEFKARINERAKANELVPNSATVEAVDILTSAKVNETSNIVEAKIADEQVT
notes: Expressed in E. coli from pQE-30 and purified; not shown: N-terminal His6-tag from vector pQE-30
B3: EF1269 A domain (EF1269A), N-terminal His6-tag fusion protein (other)
chain: ETGYAQTEPTSTSETNQISATPNVVPRKQVGNIVTAIQLTDKEGNPLGTINQYTDIYLRIEFNLPDNTVNSGDTSVITLPEELRLEKNMTFNVVDDTGTVVAIAQTDVANKTVTLTYTDYVENHANISGSLYFTSLIDFENVENESKIPIYVTVEGEKIFAGDLDYQGEGDDVNEKFSKYSWFIEDDPTEIYNVLRINPTGQTYTDLEVEDVLKTESLSYMKDTMKIERGQWTLDGNAIWQFTPEEDITDQLAVQYGPDDRNFSVHFGNIGTNEYRITYKTKIDHLPEKGETFTNYAKLTENQTVVEEVEVSRVSQTGGGEANGEQYVVEIHKEDEAGQRLAGAEFELIRNSTNQTVAKITTDQNGTAIVKGLLKDNYTLVETKAPTGYQLSQNKIPITPEDFGKNLVALKTVVNHKISYQPVAASFLAGKVLLGKPLKDAEFQFELLDEKGTVLETVSNDTLGKIQFSPLTFETPGNYQYTIREVNTQQTGVSYDTHNLQVQVTVEALLGNLVATTQYDGGQVFTNHYTPEKPIESTTPPTSGTTDTTTNSTTETTSITIEKQAIRNKE
notes: as for B1
B4: EF0089 A domain (EF0089A), N-terminal His6-tag fusion protein (other)
chain: EEVNSDGQLTLGEVKQTSQQEMTLALQGKAQPVTQEVVVHYSANVSIKAAHWAAPNNTRKIQVDDQKKQIQIELNQQALADTLVLTLNPTATEDVTFSYGQQQRALTLKTGTDPTESTAITSSPAASANEGSTEEASTNSSVPRSSEETVASTTKAIESKTTESTTVKPRVAGPTDISDYFTGDETTIIDNFEDPIYLNPDGTPATPPYKEDVTIHWNFNWSIPEDVREQMKAGDYFEFQLPGNLKPNKPGSGDLVDAEGNVYGTYTISEDGTVRFTFNERITSESDIHGDFSLDTHLNDSDGRGPGDWVIDIPTQEDLPPVVIPIVPDTEQQIDKQGHFDRTPNPSAITWTVDINQAMKDQTNPTVTETWPTGNTFKSVKVYELVMNLDGTIKEVGRELSPDEYTVDKNGNVTIKGDTNKAYRLEYQTTIDEAVIPDGGGDVPFKNHATLTSDNNPNGLDAEATVTATYGKMLDKRNIDYDEANQEFTWEINYNYGEQTIPKDQAVITDTMGDNLTFEPDSLHLYSVTFDDKGNEVVGAELVEGKDYKVVINGDGSFAIDFLHDVTGAVKIDYKTKVDGIVEGDVAVNNRVDVGTGQHSEDDGTASQQNIIKNTGAVDYQNSTIGWTLAVNQNNYLMENAVITDTYEPVPGLTMVPNSLVVKDTTTGAQLTLGKDFMVEITRNADGETGFKVSFIGAYAKTSDAFHITYTTFFDVTELDANNPALDHYRNTAAIDWTDEAGNNHHSEDSKPFKPLPAFDLNAQKSGVYNAVTKEITWTIAVNLSNNRLVDAFLTDPILTNQTYLAGSLKVYEGNTKPDGSVEKVKPTQPLTDITMEEPSEKNQNTWRVDFPNDSRTYVIEFKTSVDEKVIEGSASYDNTASYTNQGSSRDVTGKVSIQHGGESVKKGGEYHKDDPDHVYWHVMINGAQSVLDDVVITDTPSPNQVLDPESLVIYGTNVTEDGTITPDKSVILEEGKDYTLEVTTDNETGQQKIVVKMAHIEAPYYMEYRSLVTSSAAGSTDTVSNQVSITGNGSEVVHGDDNGDVVVDIDHSGGHATGTKGKIQLKKTAMDETTILAGAHFQIWDQAKTQVLREGTVDATGVITFGG
notes: as for B2

Key:
human fibrinogen [1] = biological target: T1, human fibrinogen; experiment: ELISA, ECM protein coated, recombinant protein detected with mouse antiserum; positive if signal 2.5x background
human fibrinogen [2] = biological target: T1, human fibrinogen; experiment: ELISA, ECM protein coated, His-tag protein detected with anti-His6 mAb
Protocol: Plates were washed once with PBS and blocked with 1% BSA in PBS for 1 h. Fifty □l of 5 and 10 µM concentrations of purified His-tag proteins in the blocking buffer were added and incubated at ambient temperature for 2 h. Plates were washed three times with 0.05% Tween20 in PBS and incubated 2 h with 1:3000 dilution of His₆-tag monoclonal antibody (Amersham Biosciences Corp., Piscataway, N.J.) in blocking buffer. After three washes, 1:3000 dilution of alkaline phosphatase-conjugated anti-mouse antibody in blocking buffer was added to the wells and incubated 2 h. Finally, signal was detected with nitrobluetetrazolium (NBT) and 5-bromo-4-chloro-3-indolyl-phosphate (BCIP) in 0.1 M NaHCO₃, 1 mM MgCl₂, pH 9.8. Absorbance at 405 nm was measured with an ELISA reader

human fibrinogen [3] = biological target: T1, human fibrinogen; experiment: screen of binding to ECM proteins; format not detailed for EF1269

| Binder | binding result (human fibrinogen [2]) | other results |
| --- | --- | --- |
| B1 |  | binding result (human fibrinogen [1]): binds |
| B2 | binds |  |
| B3 |  | binding result (human fibrinogen [3]): no binding |
| B4 | binds |  |
